How the values were obtained:
[1] = biological target: T1, SG115 (human, UniProt P01857 1-328 = IgG part); assay: ELISA, OD405 against dose (ng/mL, log axis 1-100)
T1 construct: also called modified IgG heavy chain constant region SG115

[2] = biological target: T2, SG115v1 (human, UniProt P01857 1-328 = IgG part); assay: ELISA, OD405 against dose (ng/mL, log axis 1-100)
T2 construct: Carries the CH2 modifications of SG115 (Arg235, Arg236, Lys239, EU); Construct used in the ELISA is not described beyond the constant region; also called modified IgG heavy chain constant region SG115v1
T2 sequence (P01857 other isoform, or with tags, fused parts or gaps limits assumed): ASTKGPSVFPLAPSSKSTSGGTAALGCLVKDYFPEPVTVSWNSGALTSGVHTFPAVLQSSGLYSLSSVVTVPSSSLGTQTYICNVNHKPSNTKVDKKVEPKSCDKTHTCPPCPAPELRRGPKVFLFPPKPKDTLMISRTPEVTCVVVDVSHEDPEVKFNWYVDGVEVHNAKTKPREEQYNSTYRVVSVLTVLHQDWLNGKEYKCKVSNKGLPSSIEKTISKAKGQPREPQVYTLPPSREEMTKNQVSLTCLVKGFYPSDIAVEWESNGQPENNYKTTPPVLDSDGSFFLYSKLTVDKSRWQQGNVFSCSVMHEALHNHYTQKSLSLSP

[3] = biological target: T3, SG115v2 (human, UniProt P01857 1-328 = IgG part); assay: ELISA, OD405 against dose (ng/mL, log axis 1-100)
T3 construct: Carries the CH3 modifications of SG115 (Leu428, Ala434, Arg438, Glu440, EU); Construct used in the ELISA is not described beyond the constant region; also called modified IgG heavy chain constant region SG115v2
T3 sequence (P01857 other isoform, or with tags, fused parts or gaps limits assumed): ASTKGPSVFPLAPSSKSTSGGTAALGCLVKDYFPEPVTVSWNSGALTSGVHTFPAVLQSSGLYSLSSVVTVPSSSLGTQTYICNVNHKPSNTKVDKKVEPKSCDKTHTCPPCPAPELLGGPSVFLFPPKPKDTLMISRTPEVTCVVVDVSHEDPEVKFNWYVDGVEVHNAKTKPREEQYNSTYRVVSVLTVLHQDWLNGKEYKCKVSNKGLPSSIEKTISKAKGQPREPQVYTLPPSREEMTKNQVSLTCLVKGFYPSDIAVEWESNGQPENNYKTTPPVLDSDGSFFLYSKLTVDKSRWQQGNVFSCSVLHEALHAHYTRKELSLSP

[4] = biological target: T4, Glm (human, UniProt P01857 1-328 = IgG part); assay: ELISA, OD405 against dose (ng/mL, log axis 1-100)
T4 construct: Construct used in the ELISA is not described beyond the constant region; also called G1m
T4 sequence (P01857 1-328 D239E/L241M limits assumed): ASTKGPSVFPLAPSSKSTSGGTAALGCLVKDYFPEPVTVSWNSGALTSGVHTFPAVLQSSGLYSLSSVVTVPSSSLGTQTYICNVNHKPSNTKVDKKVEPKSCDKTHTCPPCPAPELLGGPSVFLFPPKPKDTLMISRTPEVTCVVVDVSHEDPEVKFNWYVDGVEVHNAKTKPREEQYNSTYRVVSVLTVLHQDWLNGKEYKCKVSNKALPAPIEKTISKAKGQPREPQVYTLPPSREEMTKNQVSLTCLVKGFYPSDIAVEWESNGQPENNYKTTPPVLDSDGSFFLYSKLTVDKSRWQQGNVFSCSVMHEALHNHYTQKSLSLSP

[5] = biological target: T5, G4d (human, UniProt P01861 1-325 = IgG part); assay: ELISA, OD405 against dose (ng/mL, log axis 1-100)
T5 construct: Construct used in the ELISA is not described beyond the constant region
T5 sequence (P01861 1-325 S108P limits assumed): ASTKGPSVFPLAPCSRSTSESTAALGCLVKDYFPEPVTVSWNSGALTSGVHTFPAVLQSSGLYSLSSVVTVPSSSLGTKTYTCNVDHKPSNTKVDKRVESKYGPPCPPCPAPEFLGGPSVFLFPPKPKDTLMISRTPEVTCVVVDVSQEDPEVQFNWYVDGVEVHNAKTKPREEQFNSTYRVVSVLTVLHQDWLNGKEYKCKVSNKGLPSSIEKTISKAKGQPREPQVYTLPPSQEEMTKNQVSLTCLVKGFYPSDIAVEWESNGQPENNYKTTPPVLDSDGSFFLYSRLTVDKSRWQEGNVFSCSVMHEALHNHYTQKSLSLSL

[6] = biological target: T6, Anti-IL-8 Antibody; assay: SPR (Biacore T200), 25 C, pH 7.4; SKA antibody captured by anti-rabbit IgG, Anti-IL-8 Antibody injected 0-800 nM
T6 construct: also called anti-human IL-8 antibody; Fc-Mutated Antibody
T6 sequence (constant, as listed by the source limits assumed): as the sequence (P01857 1-328 D239E/L241M limits assumed) above, with L118R, G119R, A210G, A213S, P214S, M311L, N317A, Y319T, Q321R, S323E counted along it
Protocol: To confirm the binding ability of Anti Fc-Mutation Antibodies that show selective binding to SG115v1, KD values of Anti Fc-Mutation Antibodies against Anti-IL-8 Antibody at pH 7.4 were determined at 25 degrees C. using Biacore T200 instrument (GE Healthcare). Sequence of Fc region of Anti-IL-8 Antibody has high similarity to that of Anti-hC5 Antibody.
Anti-rabbit IgG (Abbexa) was immobilized onto FC1 and 2 of a CMS sensor chip using an amine coupling kit (GE Healthcare). For the immobilization of anti-rabbit IgG, HBS-EP+, pH7.4 (GE Healthcare) buffer was used as running buffer. After the immobilization, running buffer was changed to Phosphate pH7.4 buffer (50 mM phosphate buffer containing 150 mM NaCl and 0.05 w/v % P-20, pH 7.4). Each Anti Fc-Mutation Antibody was captured onto FC2 of the sensor chip by anti-rabbit IgG. The amount of Anti Fc-Mutation Antibody to be captured was adjusted so that the number of resonance units (RU) was 100. Anti-IL-8 Antibody was injected at 0, 100, 400, and 800 nM at 10 micro L/min. Sensor surface was regenerated after each cycle with 10 mM Glycine-HCl, pH2.0, which was injected at a flow rate of 30 micro L/min. KD values were obtained using Biacore T200 Evaluation software, version 2.0 (GE Healthcare).

T1 sequence (P01857 other isoform, or with tags, fused parts or gaps limits assumed): as the sequence (P01857 1-328 D239E/L241M limits assumed) above, with L118R, G119R, S122K, A210G, A213S, P214S, M311L, N317A, Q321R, S323E counted along it

B1: SKA0001 (antibody, V domains shown)
VH: QSVEESGGRLVTPGTPLTLTCTVSGFSLSYYAMNWVRQAPGKGLEWIGIIGISGGTYYASWAKGRFTISKSSSTTVDLKMTSPTTEDTATYFCARGGSAWGDLWGQGTLVTVSS
VL: DIVMTQTPSSVSAAVGGTVTINCQASQSISRLLAWYQQKPGQPPKVLMHDASDLASGVPSRFKGSGSGTEYTLTISDLECADAATYYCQSYYWGSSGDIGYPFGGGTEVVVKG
notes: Recombinant rabbit monoclonal from B-cell cloning, expressed in FreeStyle 293-F cells; the first screen used B-cell culture supernatant; also called Anti-SG115 Antibody; rabbit Anti Fc-Mutation Antibody
binding result [1]: binds | binding result [2]: no binding (tested: about 60 ng/mL) | binding result [3]: binds | binding result [4]: no binding (tested: about 60 ng/mL) | binding result [5]: no binding (tested: about 60 ng/mL)

B2: SKA0009 (antibody, V domains shown)
VH: QSVEESGGRLVTPGTSLTLTCTVSGIDLSSYGMGWVRQAPGMGLEYIGIIYAAGRTYYASWVKGRFIISKTSTTVDLEMTSLTTEDTATYFCARHGSWYAGMDLWGPGTLVTVSS
VL: AIEMTQTPSPVSAAVGGTVSINCQASEDIENYFAWYQQKPGQPPKLLIYDASELASGVPSRFSGSGSGTDFTLTISGVQCDDAATYYCQHADYAASSENTFGGGTEVVVKG
notes: as for B1
binding result [1]: binds | binding result [2]: binds | binding result [3]: no binding (tested: about 60 ng/mL) | binding result [4]: no binding (tested: about 60 ng/mL) | binding result [5]: no binding (tested: about 60 ng/mL) | Kd [6]: 36.2 nM | koff [6]: 0.000904 s⁻¹ | kon [6]: 25000 M⁻¹ s⁻¹

B3: SKA0027 (antibody, V domains shown)
VH: QEQLVESGGGLVQPEGSLTLTCTASGFSFSSSDYMCWVRQAPGKGLEWIGCIYTGSGSTYYASWAKGRFTISKTSSTTVTLQMTSLTAADTATFFCARRGDSYSNYSFKLWGPGTLVTVSS
VL: AFELTQTPASVEAAVGGTVTIKCQASQNIYSNLAWYQQKPGQPPKLLIYTASSLASGVSSRFKGSGSGTEFTLTISDLECDDAATYYCQCTYINNGYGNTFGGGTEVVVKG
notes: as for B1
binding result [1]: binds | binding result [2]: no binding (tested: about 60 ng/mL) | binding result [3]: binds | binding result [4]: no binding (tested: about 60 ng/mL) | binding result [5]: no binding (tested: about 60 ng/mL)

B4: SKA0028 (antibody, V domains shown)
VH: QSVEESGGRLVTPGTPLTLTCTASGFTISSYHMSWVRQAPGKGLEWIGIIHGSGNMWYASWAKGRFTISRTSTTVDLEITSPTTEDTATYFCARIRFWASSNYYYFYLWGQGTLVTVSS
VL: ALVMTQTPASVSEPVGGTVTINCQASQNIYSNLAWYQQKPGQRPRLLIYGASNLESGVPSRFRGSGSGTEFTLTISDLECADAATYYCQSAYWGNNNDGAFGGGTEVVVKG
notes: as for B1
binding result [1]: binds | binding result [2]: no binding (tested: about 60 ng/mL) | binding result [3]: binds | binding result [4]: no binding (tested: about 60 ng/mL) | binding result [5]: no binding (tested: about 60 ng/mL)

B5: SKA0046 (antibody, V domains shown)
VH: QEQLVESGGGLVQPEGSLTLTCTASGFSLSSSNYMWWVRQAPGKGLEWIACIHASSSGDTYYANWAKGRFTISKTSSTTVTLQMTSLTAADTATYFCARGGYIYGDGGYNGVAGFSLWGPGTLVTVSS
VL: DVVMTQTPASVSEPVGGTVTIKCQASETIGNALAWYQQKPGQRPKLLIYGASNLESGVPSRFKGSGSGTEFTLTISDVQCDDAATYYCQSIYYSSSADTFFFPFGGGTEVVVKG
notes: as for B1
binding result [1]: binds | binding result [2]: binds | binding result [3]: no binding (tested: about 60 ng/mL) | binding result [4]: no binding (tested: about 60 ng/mL) | binding result [5]: no binding (tested: about 60 ng/mL) | Kd [6]: 49.6 nM | koff [6]: 0.00209 s⁻¹ | kon [6]: 42000 M⁻¹ s⁻¹

From US20220195070A1 (Chugai, published 2022)
